Experimental data as given in PMC4355161.

Molecular target: 30/30 nucleosomes labeled with Cy3 on H4 A15C, P62799
Experiment: other fluorescence titration

fold decrease in affinity against wild type SNF2h: 56 fold
fold decrease in binding against wild type SNF2h: 22 fold
B1: SNF2h ΔHSS (domain or fragment)
chain: MSSAAEPPPPPPPESAPSKPAASIASGGSNSSNKGGPEGVAAQAVASAASAGPADAEMEEIFDDASPGKQKEIQEPDPTYEEKMQTDRANRFEYLLKQTELFAHFIQPAAQKTPTSPLKMKPGRPRIKKDEKQNLLSVGDYRHRRTEQEEDEELLTESSKATNVCTRFEDSPSYVKWGKLRDYQVRGLNWLISLYENGINGILADEMGLGKTLQTISLLGYMKHYRNIPGPHMVLVPKSTLHNWMSEFKRWVPTLRSVCLIGDKEQRAAFVRDVLLPGEWDVCVTSYEMLIKEKSVFKKFNWRYLVIDEAHRIKNEKSKLSEIVREFKTTNRLLLTGTPLQNNLHELWSLLNFLLPDVFNSADDFDSWFDTNNCLGDQKLVERLHMVLRPFLLRRIKADVEKSLPPKKEVKIYVGLSKMQREWYTRILMKDIDILNSAGKMDKMRLLNILMQLRKCCNHPYLFDGAEPGPPYTTDMHLVTNSGKMVVLDKLLPKLKEQGSRVLIFSQMTRVLDILEDYCMWRNYEYCRLDGQTPHDERQDSINAYNEPNSTKFVFMLSTRAGGLGINLATADVVILYDSDWNPQVDLQAMDRAHRIGQTKTVRVFRFITDNTVEERIVERAEMKLRLDSIVIQQGRLVDQNLNKIGKDEMLQMIRHGATHVFASKESEITDEDIDGILERGAKKTAEMNEKLSKMGESSLRNFTMDTESSVYNFEGEDYREKQKIAFTE
modifications: not checked
